From patent publication US20220002363A1, “COMPOSITIONS AND METHODS FOR TREATING PULMONARY DISEASE” (United States Government As Represented By The Department …, priority 2020, published 2022)
Entries after “also recorded” stand apart in the source; their conditions may differ.

Legend:
[1] = molecular target: T1, recombinant human Fas (Homo sapiens, UniProt P25445); assay: Competition assay: binding of biotinylated WT sFasL to plate-coated recombinant human Fas; conditions: biotinylated WT-sFasL 70 ng/mL, Fas coated at 250 ng/mL, serial 3-fold dilutions
T1 construct: recombinant human soluble Fas receptors (PeproTech, Rocky Hill, N.J.); purchased PeproTech
T1 sequence (P25445 26-173 limits assumed): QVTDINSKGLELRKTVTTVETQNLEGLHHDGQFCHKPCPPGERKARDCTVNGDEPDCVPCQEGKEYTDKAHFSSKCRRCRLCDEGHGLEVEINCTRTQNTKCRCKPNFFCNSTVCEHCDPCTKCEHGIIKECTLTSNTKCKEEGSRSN
Procedure: (§1) The mixtures were incubated for 2 hours in 96-well plates pre-coated with recombinant hsFas (250 ng/ml). After washing unbound material, biotin was detected using HRP conjugated Streptavidin. […] The sFasL bound to Fas was detected using polyclonal anti-human FasL antibodies. […] Different molar ratios of the Fas-activating antibody CH-11 and mut-sFasL were added, and caspase 3/7 activity measured after 5 hours. […] Data represent the results from three separate experiments, each done in duplicate, and were analyzed by 2-way ANOVA with Sidak's post hoc analysis. […] Each dot represents individual data; lines represent means±SD. *=P<0.05; **=P<0.01, ***P<0.001.
(§2) Antibodies and Reagents. […] FLAG tagged mut-sFasL was detected using HRP anti-FLAG monoclonal antibody (Sigma-Aldrich, Cat #A85920). […]
WT-sFasL inhibition occurs prior to receptor binding. […] Recombinant human Fas at 250 ng/mL were coated and the binding of a fixed concentration of biotinylated WT-sFasL (70 ng/mL) were measured in the presence of serial 3-fold dilutions of either WT-sFasL or mut-sFasL. […] Serial dilutions of either WT-sFasL or mut-sFasL were incubated in wells coated with recombinant human Fas, 5 μg/mL, and after washing, detected sFasL bound to Fas using polyclonal anti-FasL antibodies. […]

[2] = molecular target: T2, Fas (Homo sapiens, UniProt P25445); assay: Caspase 3/7 activity in Jurkat cells with Fas-activating antibody CH-11 and mut-sFasL at different molar ratios; assay type: cell-based; conditions: 5-hour incubation
T2 construct: host or cells: Jurkat (human leukemic T lymphocytes)
T2 sequence (P25445 26-335): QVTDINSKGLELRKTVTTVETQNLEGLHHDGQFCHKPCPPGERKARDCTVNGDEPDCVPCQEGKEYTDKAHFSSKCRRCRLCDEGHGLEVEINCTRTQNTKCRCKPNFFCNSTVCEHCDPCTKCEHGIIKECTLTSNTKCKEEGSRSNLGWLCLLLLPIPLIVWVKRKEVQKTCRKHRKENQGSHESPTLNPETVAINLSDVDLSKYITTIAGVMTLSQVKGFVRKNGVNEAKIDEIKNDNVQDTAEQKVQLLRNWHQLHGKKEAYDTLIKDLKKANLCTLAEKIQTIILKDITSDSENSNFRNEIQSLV
Procedure: as §1, §2
Measurements of apoptotic cascade activation. Apoptotic cascade activation was assessed by determining caspase 3/7 activity and Annexin V externalization. Caspase-3/7 activity was measured using a commercial substrate (Caspase-Glo 3/7 Assay, Promega, Madison, Wis., Cat #G8090) following manufacturer's instructions. Annexin V was measured with a luminescent commercial assay that allows for measurement of annexin V externalization in adherent cells (RealTime-Glo Annexin V assay, Promega, Madison, Wis., Cat #JA1011). Luminescence was measured with a Synergy H4 Microplate Reader (BioTek, Winooski, Vt.). […]

B1: mut-sFasL: mutant sFasL molecule in which 8 charged amino acids in the 26 amino acid stalk region were changed to alanine (protein)
chain: QLFALQAALAALAASTSQMATASSLAKQIGHPSPPPEKKELRKVAHLTGKSNSRSMPLEWEDTYGIVLLSGVKYKKGGLVINETGLYFVYSKVYFRGQSCNNLPLSHKVYMRNSKYPQDLVMMEGKMMSYCTTGQMWARSSYLGAVFNLTSADHLYVNVSELSLVNFEESQTFFGLYKL
effect of increasing competitor concentration on binding of biotinylated WT-sFasL to Fas [1]: little effect on binding of biotinylated WT-sFasL, except at very high doses | effect on CH11 activity at very high molar ratios [2]: increased CH11 activity | effect on caspase 3/7 activation induced by CH11 ([2]; different molar ratios of mut-sFasL and antibody): did not attenuate the caspase 3/7 activation induced by CH11; also recorded: did not inhibit the activity of CH11
